Assay results as given in patent publication US20140113288.
Residue numbers refer to the chain shown, from its start.

B1: HtrA4-FLAG (protein)
chain: EKLHTQPSCPAVCQPTRCPALPTCALGTTPVFDLCRCCRVCPAAEREVCGGAQGQPCAPGLQCLQPLRPGFPSTCGCPTLGGAVCGSDRRTYPSMCALRAENRAARRLGKVPAVPVQWGNCGDTGTRSAGPLRRNYNFIAAVVEKVAPSVVHVQLWGRLLHGSRLVPVYSGSGFIVSEDGLIITNAHVVRNQQWIEVVLQNGARYEAVVKDIDLKLDLAVIKIESNAELPVLMLGRSSDLRAGEFVVALGSPFSLQNTATAGIVSTKQRGGKELGMKDSDMDYVQIDATINYGNSGGPLVNLDGDVIGVNSLRVTDGISFAIPSDRVRQFLAEYHEHQMKGKAFSNKKYLGLQMLSLTVPLSEELKMHYPDFPDVSSGVYVCKVVEGTAAQSSGLRDHDVIVNINGKPITTTTDVVKALDSDSLSMAVLRGKDNLLLTVIPETIN
fibronectin
  cleavage of fibronectin (immunoblotting with anti-fibronectin Ab): cleavage of fibronectin by HtrA4-FLAG, but not HtrA4mt-FLAG, was observed in a dose-dependent manner
syncytin-1-HA, Q9UQF0
syncytin-1-HA, Q9UQF0, sequence (Q9UQF0 21-538): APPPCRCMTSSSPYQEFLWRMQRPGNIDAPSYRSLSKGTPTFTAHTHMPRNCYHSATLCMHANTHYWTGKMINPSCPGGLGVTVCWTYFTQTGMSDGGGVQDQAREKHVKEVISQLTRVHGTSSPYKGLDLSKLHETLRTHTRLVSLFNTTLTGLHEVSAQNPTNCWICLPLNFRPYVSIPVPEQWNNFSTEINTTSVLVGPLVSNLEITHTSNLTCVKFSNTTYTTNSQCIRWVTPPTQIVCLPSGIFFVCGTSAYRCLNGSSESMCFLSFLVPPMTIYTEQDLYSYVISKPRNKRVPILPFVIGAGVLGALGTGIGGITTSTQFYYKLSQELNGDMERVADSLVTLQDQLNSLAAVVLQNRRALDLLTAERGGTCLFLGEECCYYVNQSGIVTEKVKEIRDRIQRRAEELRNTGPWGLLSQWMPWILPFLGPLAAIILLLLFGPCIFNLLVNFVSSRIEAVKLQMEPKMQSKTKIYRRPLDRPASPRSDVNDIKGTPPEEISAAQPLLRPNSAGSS
  protein level of surface syncytin-1-HA TM subunit (biotinylation, streptavidin pull-down, HA mAb): the protein level of the TM subunit of syncytin-1-HA decreased in the presence of HtrA4-FLAG, but not HtrA4mt-FLAG

B2: HtrA4mt-FLAG (protein)
chain: B1 chain with S295A
fibronectin
  cleavage of fibronectin (immunoblotting with anti-fibronectin Ab): cleavage of fibronectin by HtrA4-FLAG, but not HtrA4mt-FLAG, was observed in a dose-dependent manner
syncytin-1-HA, Q9UQF0
  protein level of surface syncytin-1-HA TM subunit (biotinylation, streptavidin pull-down, HA mAb): the protein level of the TM subunit of syncytin-1-HA decreased in the presence of HtrA4-FLAG, but not HtrA4mt-FLAG
